Reference: the Human Domainome abundance scans (Beltran et al. 2025)

B1: Double-stranded RNA-binding protein Staufen homolog 1, residues 183 to 249; numbered along this chain, O95793 (parent)
chain: KSEISQVFEIALKRNLPVNFEVARESGPPHMKNFVTKVSVGEFVGEGEGKSKKISKKNAAIAVLEEL

Variants of: B1
Experiment: abundance fitness (aPCA) (normalised: wild type 0, dead -1); higher = more abundant; growth selection in yeast, the domain comes from the species named
Conditions: Homo sapiens

Abundance fitness of substitutions, site by site:
L64: I -0.584 | K -0.472 | S -0.475 | N -0.423 | R -0.517 | G -0.44 | P -0.454 | D -0.492 | W -0.67 | M -0.218 | Q -0.448 | C -0.209 | Y -0.713
N58: K -0.149 | Y -0.4 | Q -0.126 | A -0.171 | P -0.763 | M -0.055 | R -0.105 | I -0.614 | W -0.868 | V -0.565 | F -0.434 | C -0.451 | H -0.284 | S -0.341 | G -0.655 | T -0.604 | E -0.238 | L -0.195
I61: R 0.002 | P -0.556 | Q -0.14 | Y -0.478 | W -0.624 | H -0.218 | C -0.126 | M -0.095 | S -0.045 | N -0.181 | D -0.53 | F -0.39 | L -0.061 | E -0.245 | V -0.104 | T -0.292 | G -0.184 | A 0.002 | K -0.047
A62: Q -0.086 | E -0.353 | N 0.035 | S -0.112 | V -0.403 | R -0.121 | C -0.223 | T -0.381 | Y -0.788 | H -0.242 | I -0.384 | M -0.226 | P -0.56 | L -0.68 | G -0.302 | F -0.787 | D -0.185 | K 0.023
A60: W -1.02 | V -0.489 | D -0.649 | C -0.067 | Y -0.431 | M -0.363 | H -0.803 | I -0.452 | G -0.685 | K -0.714 | T -0.466 | P -0.701 | F -0.068 | L -0.414 | N -0.739 | E -0.575 | R -0.882 | Q -0.741
K56: Y -0.254 | I -0.127 | V -0.32 | W -0.825 | N -0.405 | M -0.35 | R -0.042 | L -0.36 | P -0.997 | Q -0.291
V63: W -0.818 | H -0.858 | N -0.521 | T -0.615 | M -0.239 | P -0.577 | D -0.497 | R -0.73 | F -0.829 | Y -0.906 | L -0.143 | A -0.246 | S -0.693 | G -0.482 | Q -0.597 | C -0.233
A59: S -0.608 | L -0.806 | H -1.04 | P -1.08 | R -0.843 | V -1.03 | M -0.753 | E -0.798 | W -0.937 | C -0.663 | Q -0.785 | G -0.61 | T -0.869 | N -0.705 | Y -1.16 | I -1.03 | K -0.717 | F -0.911 | D -0.718
E66: W -0.079 | G -0.118 | M 0.111 | T -0.042 | K 0.216 | I 0.097 | P -0.235 | Q 0.138 | H -0.002 | R 0.123 | V 0.077 | S -0.005 | Y 0.063 | L 0.114 | N -0.012 | C -0.037 | F 0.103
L67: N -0.584 | Q -0.423 | A -0.509 | I -0.114 | Y -0.873 | G -0.438 | W -0.465 | K -0.53 | E -0.743 | H -0.299 | M 0 | C -0.693 | T -0.6 | R -0.751 | P -0.526 | S -0.603 | D -0.706 | F -0.355 | V -0.439
